Data from publication PMC9618391 (2022).

T1: μ1A (AP1M1) expressed from cDNA in COS-7 cells, Q9BXS5
T1 chain: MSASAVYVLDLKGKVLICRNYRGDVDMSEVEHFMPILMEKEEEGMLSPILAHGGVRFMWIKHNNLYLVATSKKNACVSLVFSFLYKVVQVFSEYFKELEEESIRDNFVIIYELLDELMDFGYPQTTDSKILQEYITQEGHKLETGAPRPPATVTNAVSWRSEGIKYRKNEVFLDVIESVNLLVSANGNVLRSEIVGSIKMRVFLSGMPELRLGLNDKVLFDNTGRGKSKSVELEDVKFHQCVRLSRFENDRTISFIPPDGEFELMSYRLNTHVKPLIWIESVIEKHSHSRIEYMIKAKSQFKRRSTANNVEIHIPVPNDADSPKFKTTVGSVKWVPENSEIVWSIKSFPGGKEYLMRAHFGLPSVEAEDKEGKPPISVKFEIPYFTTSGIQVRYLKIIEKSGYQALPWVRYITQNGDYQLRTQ


Target: T1, μ1A (AP1M1) expressed from cDNA in …
Test: co-immunoprecipitation with Western blot quantification
Conditions: chain shown with the change; COS-7 cells cotransfected with hNIS and μ1A; IP α-μ1A, WB α-hNIS; parent: est. 100; read off a plot

Binder	percent of parent (% Relative to hNIS WT)
wild-type human sodium/iodide symporter (hNIS), Q92911 L121A (protein) MEAVETGERPTFGAWDYGVFALMLLVSTGIGLWVGLARGGQRSAEDFFTGGRRLAALPVGLSLSASFMSAVQVLGVPSEAYRYGLKFLWMCLGQLLNSVLTALLFMPVFYRLGLTSTYEYAEMRFSRAVRLCGTLQYIVATMLYTGIVIYAPALILNQVTGLDIWASLLSTGIICTFYTAVGGMKAVVWTDVFQVVVMLSGFWVVLARGVMLVGGPRQVLTLAQNHSRINLMDFNPDPRSRYTFWTFVVGGTLVWLSMYGVNQAQVQRYVACRTEKQAKLALLINQVGLFLIVSSAACCGIVMFVFYTDCDPLLLGRISAPDQYMPLLVLDIFEDLPGVPGLFLACAYSGTLSTASTSINAMAAVTVEDLIKPRLRSLAPRKLVIISKGLSLIYGSACLTVAALSSLLGGGVLQGSFTVMGVISGPLLGAFILGMFLPACNTPGVLAGLGAGLALSLWVALGATLYPPSEQTMRVLPSSAARCVALSVNASGLLDPALLPANDSSRAPSSGMDASRPALADSFYAISYLYYGALGTLTTVLCGALISCLTGPTKRSTLAPGLLWWDLARQTASVAPKEEVAILDDNLVKGPEELPTGNKKPPGFLPTNEDRLFFLGQKELEGAGSWTPCVGHDGGRDQQETNL	17
wild-type human sodium/iodide symporter (hNIS), Q92911 L583A (protein) MEAVETGERPTFGAWDYGVFALMLLVSTGIGLWVGLARGGQRSAEDFFTGGRRLAALPVGLSLSASFMSAVQVLGVPSEAYRYGLKFLWMCLGQLLNSVLTALLFMPVFYRLGLTSTYEYLEMRFSRAVRLCGTLQYIVATMLYTGIVIYAPALILNQVTGLDIWASLLSTGIICTFYTAVGGMKAVVWTDVFQVVVMLSGFWVVLARGVMLVGGPRQVLTLAQNHSRINLMDFNPDPRSRYTFWTFVVGGTLVWLSMYGVNQAQVQRYVACRTEKQAKLALLINQVGLFLIVSSAACCGIVMFVFYTDCDPLLLGRISAPDQYMPLLVLDIFEDLPGVPGLFLACAYSGTLSTASTSINAMAAVTVEDLIKPRLRSLAPRKLVIISKGLSLIYGSACLTVAALSSLLGGGVLQGSFTVMGVISGPLLGAFILGMFLPACNTPGVLAGLGAGLALSLWVALGATLYPPSEQTMRVLPSSAARCVALSVNASGLLDPALLPANDSSRAPSSGMDASRPALADSFYAISYLYYGALGTLTTVLCGALISCLTGPTKRSTLAPGLLWWDLARQTASVAPKEEVAIADDNLVKGPEELPTGNKKPPGFLPTNEDRLFFLGQKELEGAGSWTPCVGHDGGRDQQETNL	60
wild-type human sodium/iodide symporter (hNIS), Q92911 Y120A (protein) MEAVETGERPTFGAWDYGVFALMLLVSTGIGLWVGLARGGQRSAEDFFTGGRRLAALPVGLSLSASFMSAVQVLGVPSEAYRYGLKFLWMCLGQLLNSVLTALLFMPVFYRLGLTSTYEALEMRFSRAVRLCGTLQYIVATMLYTGIVIYAPALILNQVTGLDIWASLLSTGIICTFYTAVGGMKAVVWTDVFQVVVMLSGFWVVLARGVMLVGGPRQVLTLAQNHSRINLMDFNPDPRSRYTFWTFVVGGTLVWLSMYGVNQAQVQRYVACRTEKQAKLALLINQVGLFLIVSSAACCGIVMFVFYTDCDPLLLGRISAPDQYMPLLVLDIFEDLPGVPGLFLACAYSGTLSTASTSINAMAAVTVEDLIKPRLRSLAPRKLVIISKGLSLIYGSACLTVAALSSLLGGGVLQGSFTVMGVISGPLLGAFILGMFLPACNTPGVLAGLGAGLALSLWVALGATLYPPSEQTMRVLPSSAARCVALSVNASGLLDPALLPANDSSRAPSSGMDASRPALADSFYAISYLYYGALGTLTTVLCGALISCLTGPTKRSTLAPGLLWWDLARQTASVAPKEEVAILDDNLVKGPEELPTGNKKPPGFLPTNEDRLFFLGQKELEGAGSWTPCVGHDGGRDQQETNL	65

Next, values leading:

percent of parent (% Relative to hNIS WT)	Binder
9	wild-type human sodium/iodide symporter (hNIS), Q92911 L562A; L563A (protein) MEAVETGERPTFGAWDYGVFALMLLVSTGIGLWVGLARGGQRSAEDFFTGGRRLAALPVGLSLSASFMSAVQVLGVPSEAYRYGLKFLWMCLGQLLNSVLTALLFMPVFYRLGLTSTYEYLEMRFSRAVRLCGTLQYIVATMLYTGIVIYAPALILNQVTGLDIWASLLSTGIICTFYTAVGGMKAVVWTDVFQVVVMLSGFWVVLARGVMLVGGPRQVLTLAQNHSRINLMDFNPDPRSRYTFWTFVVGGTLVWLSMYGVNQAQVQRYVACRTEKQAKLALLINQVGLFLIVSSAACCGIVMFVFYTDCDPLLLGRISAPDQYMPLLVLDIFEDLPGVPGLFLACAYSGTLSTASTSINAMAAVTVEDLIKPRLRSLAPRKLVIISKGLSLIYGSACLTVAALSSLLGGGVLQGSFTVMGVISGPLLGAFILGMFLPACNTPGVLAGLGAGLALSLWVALGATLYPPSEQTMRVLPSSAARCVALSVNASGLLDPALLPANDSSRAPSSGMDASRPALADSFYAISYLYYGALGTLTTVLCGALISCLTGPTKRSTLAPGAAWWDLARQTASVAPKEEVAILDDNLVKGPEELPTGNKKPPGFLPTNEDRLFFLGQKELEGAGSWTPCVGHDGGRDQQETNL
80	wild-type human sodium/iodide symporter (hNIS), Q92911 Y118A (protein) MEAVETGERPTFGAWDYGVFALMLLVSTGIGLWVGLARGGQRSAEDFFTGGRRLAALPVGLSLSASFMSAVQVLGVPSEAYRYGLKFLWMCLGQLLNSVLTALLFMPVFYRLGLTSTAEYLEMRFSRAVRLCGTLQYIVATMLYTGIVIYAPALILNQVTGLDIWASLLSTGIICTFYTAVGGMKAVVWTDVFQVVVMLSGFWVVLARGVMLVGGPRQVLTLAQNHSRINLMDFNPDPRSRYTFWTFVVGGTLVWLSMYGVNQAQVQRYVACRTEKQAKLALLINQVGLFLIVSSAACCGIVMFVFYTDCDPLLLGRISAPDQYMPLLVLDIFEDLPGVPGLFLACAYSGTLSTASTSINAMAAVTVEDLIKPRLRSLAPRKLVIISKGLSLIYGSACLTVAALSSLLGGGVLQGSFTVMGVISGPLLGAFILGMFLPACNTPGVLAGLGAGLALSLWVALGATLYPPSEQTMRVLPSSAARCVALSVNASGLLDPALLPANDSSRAPSSGMDASRPALADSFYAISYLYYGALGTLTTVLCGALISCLTGPTKRSTLAPGLLWWDLARQTASVAPKEEVAILDDNLVKGPEELPTGNKKPPGFLPTNEDRLFFLGQKELEGAGSWTPCVGHDGGRDQQETNL
100	wild-type human sodium/iodide symporter (hNIS), Q92911 L594A (protein) MEAVETGERPTFGAWDYGVFALMLLVSTGIGLWVGLARGGQRSAEDFFTGGRRLAALPVGLSLSASFMSAVQVLGVPSEAYRYGLKFLWMCLGQLLNSVLTALLFMPVFYRLGLTSTYEYLEMRFSRAVRLCGTLQYIVATMLYTGIVIYAPALILNQVTGLDIWASLLSTGIICTFYTAVGGMKAVVWTDVFQVVVMLSGFWVVLARGVMLVGGPRQVLTLAQNHSRINLMDFNPDPRSRYTFWTFVVGGTLVWLSMYGVNQAQVQRYVACRTEKQAKLALLINQVGLFLIVSSAACCGIVMFVFYTDCDPLLLGRISAPDQYMPLLVLDIFEDLPGVPGLFLACAYSGTLSTASTSINAMAAVTVEDLIKPRLRSLAPRKLVIISKGLSLIYGSACLTVAALSSLLGGGVLQGSFTVMGVISGPLLGAFILGMFLPACNTPGVLAGLGAGLALSLWVALGATLYPPSEQTMRVLPSSAARCVALSVNASGLLDPALLPANDSSRAPSSGMDASRPALADSFYAISYLYYGALGTLTTVLCGALISCLTGPTKRSTLAPGLLWWDLARQTASVAPKEEVAILDDNLVKGPEEAPTGNKKPPGFLPTNEDRLFFLGQKELEGAGSWTPCVGHDGGRDQQETNL
100	wild-type human sodium/iodide symporter (hNIS), Q92911 L587A (protein) MEAVETGERPTFGAWDYGVFALMLLVSTGIGLWVGLARGGQRSAEDFFTGGRRLAALPVGLSLSASFMSAVQVLGVPSEAYRYGLKFLWMCLGQLLNSVLTALLFMPVFYRLGLTSTYEYLEMRFSRAVRLCGTLQYIVATMLYTGIVIYAPALILNQVTGLDIWASLLSTGIICTFYTAVGGMKAVVWTDVFQVVVMLSGFWVVLARGVMLVGGPRQVLTLAQNHSRINLMDFNPDPRSRYTFWTFVVGGTLVWLSMYGVNQAQVQRYVACRTEKQAKLALLINQVGLFLIVSSAACCGIVMFVFYTDCDPLLLGRISAPDQYMPLLVLDIFEDLPGVPGLFLACAYSGTLSTASTSINAMAAVTVEDLIKPRLRSLAPRKLVIISKGLSLIYGSACLTVAALSSLLGGGVLQGSFTVMGVISGPLLGAFILGMFLPACNTPGVLAGLGAGLALSLWVALGATLYPPSEQTMRVLPSSAARCVALSVNASGLLDPALLPANDSSRAPSSGMDASRPALADSFYAISYLYYGALGTLTTVLCGALISCLTGPTKRSTLAPGLLWWDLARQTASVAPKEEVAILDDNAVKGPEELPTGNKKPPGFLPTNEDRLFFLGQKELEGAGSWTPCVGHDGGRDQQETNL
